The values below come from article PMC5025769, “A highly efficient sorbitol dehydrogenase from Gluconobacter oxydans G624 and improvement of its stability through immobilization” (Scientific Reports, 2016).

The target in data set [1] is T1, GoSLDH (sorbitol dehydrogenase) (Gluconobacter oxydans, UniProt Q9KWR5).
T1 construct: purified 6x His-tagged recombinant GoSLDH
T1 sequence (Q9KWR5 1-485): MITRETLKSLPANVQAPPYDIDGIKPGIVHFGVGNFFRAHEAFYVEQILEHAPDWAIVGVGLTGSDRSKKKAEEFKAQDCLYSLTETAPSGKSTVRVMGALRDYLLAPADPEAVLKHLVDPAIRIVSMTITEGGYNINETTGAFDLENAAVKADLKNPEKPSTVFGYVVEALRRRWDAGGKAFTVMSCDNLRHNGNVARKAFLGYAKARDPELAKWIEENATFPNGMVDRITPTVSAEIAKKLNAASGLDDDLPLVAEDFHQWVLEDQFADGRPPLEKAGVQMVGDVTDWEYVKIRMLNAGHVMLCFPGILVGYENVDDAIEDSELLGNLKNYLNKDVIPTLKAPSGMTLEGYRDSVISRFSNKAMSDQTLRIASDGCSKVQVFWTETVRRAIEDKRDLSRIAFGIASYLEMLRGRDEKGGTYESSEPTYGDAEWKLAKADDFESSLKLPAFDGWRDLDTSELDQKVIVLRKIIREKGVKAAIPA
In words: substrate specificity assay at […]. Type of data set: biochemical.

The target in data set [2] is T2, PfMDH (mannitol dehydrogenase) (Pseudomonas fluorescens, UniProt O08355, K295Q).
T2 construct: gene mtlD
T2 sequence (O08355 entry or part of it K295Q): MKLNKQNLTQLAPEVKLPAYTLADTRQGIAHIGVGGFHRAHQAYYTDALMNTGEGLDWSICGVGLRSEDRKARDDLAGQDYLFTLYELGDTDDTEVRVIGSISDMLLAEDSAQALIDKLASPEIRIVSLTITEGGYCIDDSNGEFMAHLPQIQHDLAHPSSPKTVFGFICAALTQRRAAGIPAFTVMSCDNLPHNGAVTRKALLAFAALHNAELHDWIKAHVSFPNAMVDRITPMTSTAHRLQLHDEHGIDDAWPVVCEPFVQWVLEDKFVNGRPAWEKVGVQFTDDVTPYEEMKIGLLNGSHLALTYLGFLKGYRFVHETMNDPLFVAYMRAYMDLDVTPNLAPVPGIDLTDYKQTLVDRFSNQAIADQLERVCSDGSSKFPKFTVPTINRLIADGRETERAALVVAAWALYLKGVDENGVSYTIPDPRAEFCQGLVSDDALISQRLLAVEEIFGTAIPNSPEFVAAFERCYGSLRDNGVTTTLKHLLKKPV
In words: isothermal titration calorimetry, […] °C. Type of data set: binding.

Data set [3] addresses GoSLDH (sorbitol dehydrogenase) (Gluconobacter oxydans, UniProt Q9KWR5, K294Q). In words: isothermal titration calorimetry, […] °C. Format: binding.
Substrate in data set [4]: NC(=O)c1ccc[n+]([C@@H]2O[C@H](COP(=O)(O)OP(=O)(O)OC[C@H]3O[C@@H](n4cnc5c(N)ncnc54)[C@H](OP(=O)(O)O)[C@@H]3O)[C@@H](O)[C@H]2O)c1
Put plainly: purified protein. As to conditions: varied: cofactor.

Data set [5] concerns the molecule itself. In words: SEC; Bio-Sil SEC-250 column (300 x 7.8 mm) on HPLC; mobile phase pH 6.8, 50 mM Na2HPO4, 50 mM NaH2PO4, 50 mM NaCl, 10 mM NaN3; 1.0 mL/min; quaternary structure from comparison of molecular weights by HPLC and SDS-PAGE. (In gel filtration, larger molecules generally elute earlier.)
Substrate in data set [6]: OC[C@@H](O)[C@@H](O)[C@H](O)[C@@H](O)CO
Put plainly: purified protein. As to conditions: NADP^+. Type of data set: biochemical, Gluconobacter oxydans.

With `OC[C@@H](O)[C@@H](O)[C@H](O)[C@H](O)CO` [mannitol], the “substrate specificity assay at 200 mM” value in data set [1] was “GoSLDH is highly specific towards D-sorbitol, mannitol, and D-arabinitol (Table S2)”.

For `OC[C@@H](O)[C@@H](O)[C@H](O)[C@@H](O)CO` [D-sorbitol], the values for the Kd in data set [2] and in data set [3] were 278 µM and 96 µM, respectively.

B1: sorbitol dehydrogenase (GoSLDH) from Gluconobacter oxydans G624 (enzyme, UniProt Q9KWR5 1-485, looked up)
chain: T1 sequence (Q9KWR5 1-485)
notes: sorbitol dehydrogenase (SLDH) of Gluconobacter oxydans G624; complete 1455-bp codon-optimized gene; molecular mass 53.64 kDa by SDS-PAGE; The abstract speaks of the complete 1455-bp gene, the methods of 1.458 kb; also called recombinant GoSLDH; polyol-specific long-chain dehydrogenase from G. oxydans G624; source: E. coli BL21 (DE3)-CodonPlus RIL, pET-28(a), purified (Ni-NTA Superflow column)
For B1, the Km in “purified protein [4]” turned out to be 0.0882 mM. Moreover, the “stoichiometry N” value in data set [5] was found to be 2. In addition, in “purified protein [6]”, the Km is reported as 38.9 mM, the kcat came to 3820 s⁻¹ and the kcat/Km amounted to 98100 M⁻¹ s⁻¹.

For orientation: Kd means the concentration at which binding is half-saturated. A high value points to weaker binding. The term Km denotes the concentration of substrate that gives half-maximal velocity. Broadly, the stoichiometry N is the number of molecules, sites or subunits per partner or assembly. As a reminder, the kcat is the maximal rate divided by the concentration of active sites. Usually kcat/Km stands for the turnover number divided by the Michaelis constant.
